The source of these data is patent EP4259652B1.

The experiment has as its target monoclonal antibody NBH133A1-2B4. Put plainly: competitive ELISA: standard peptide competes with coated …-K-Biotin for HRP-labelled antibody.

In turn, NLLNLNKDKE [standard peptide …] returned an IC50 of 0.0117 µg/mL.

By IC50 is commonly meant the concentration at which inhibition is half-maximal. The low end stands for greater potency in that assay, the high end for weaker potency in that assay.
